Test results reported in patent US20110150870A1.

What was measured:
[1] = biological target: human NKG2D, cell surface (human) (UniProt P26718); experiment: cell-based or functional assay
[2] = biological target: human Fc-NKG2D (human) (UniProt P26718); experiment: SPR (BIAcore 2000), human Fc-NKG2D immobilized on chip; bivalent IgG
[3] = biological target: human Fc-NKG2D (human) (UniProt P26718); experiment: SPR (BIAcore 2000), human Fc-NKG2D immobilized on chip; bivalent binding (virtual affinity, avidity)

human NKG2D, cell surface (human), sequence (P26718 whole entry): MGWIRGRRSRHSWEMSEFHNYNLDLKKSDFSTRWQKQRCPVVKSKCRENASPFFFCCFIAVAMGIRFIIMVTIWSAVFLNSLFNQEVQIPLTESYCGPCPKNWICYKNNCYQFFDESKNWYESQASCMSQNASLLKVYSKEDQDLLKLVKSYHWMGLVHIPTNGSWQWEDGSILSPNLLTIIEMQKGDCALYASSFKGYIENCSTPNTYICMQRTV
human Fc-NKG2D (human), sequence (P26718 78-216 limits assumed): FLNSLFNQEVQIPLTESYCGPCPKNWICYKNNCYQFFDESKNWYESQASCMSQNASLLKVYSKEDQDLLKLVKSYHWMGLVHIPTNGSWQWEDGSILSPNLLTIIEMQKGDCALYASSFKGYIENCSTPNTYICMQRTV

percentage of degranulated NK cells (CD56+ CD107a/CD107b+) among total NK cells (CD56+), immobilized antibody, Donor 1 [1]: 13.6% | percentage of degranulated NK cells (CD56+ CD107a/CD107b+) among total NK cells (CD56+), immobilized antibody, Donor 2 [1]: 16.3% | percentage of degranulated NK cells (CD56+ CD107a/CD107b+) among total NK cells (CD56+), immobilized antibody, Donor 3 [1]: 24.3% | percentage of degranulated NK cells (CD56+ CD107a/CD107b+) among total NK cells (CD56+), immobilized antibody, Donor 4 [1]: 8.4% | koff [2]: 5.1e-05 s⁻¹ | kon [2]: 140000 M⁻¹ s⁻¹ | Kd [3]: 0.36 nM
Substance: mouse anti-human NKG2D mAb 149810 (antibody)
